Results on five molecules are retold here after paper PMC4032492, “Molecular mechanism of Aurora A kinase autophosphorylation and its allosteric activation by TPX2” (eLife, 2014).

Substitutions are numbered along the chain they refer to. Names may count otherwise. Where only a bound is given, the exact number is not on record here.

The target of data set [1] is dephosphorylated Aurora A kinase 122-403 (human) (UniProt O14965). Put plainly: AUC + other: SAXS; estimate from the concentration dependence of the dimer in AUC and SAXS; dimer to monomers.
The target is the same in data set [2]. Put plainly: AUC; sedimentation velocity, 50,000 rpm, 18°C; 100-160 μM Aurora A + 500 μM AMPPCP, with or without 100 μM TPX2 1-25, kinase assay buffer; dimer to monomers.
Data set [3] shares this target. In words: SAXS; Aurora A 0.33-6.6 mg/ml with 1 mg/mL TPX2 1-25, 500 μM AMPPCP, kinase assay buffer, 20°C; curves fitted with monomer and dimer of the X-ray structures.
Data set [4] deals with the molecule itself. In words: AUC; sedimentation velocity, 50,000 rpm, 18°C; 100-160 μM Aurora A + 500 μM AMPPCP, with or without 100 μM TPX2 1-25, kinase assay buffer; dimer to monomers.
Data set [5] deals with T1, phosphorylated Aurora A kinase 122-403 (human, UniProt O14965 122-403, heavily phosphorylated (multiple sites, by autophosphorylation and E. coli kinases during expression); T288 in the activation loop phosphorylated).
T1 chain: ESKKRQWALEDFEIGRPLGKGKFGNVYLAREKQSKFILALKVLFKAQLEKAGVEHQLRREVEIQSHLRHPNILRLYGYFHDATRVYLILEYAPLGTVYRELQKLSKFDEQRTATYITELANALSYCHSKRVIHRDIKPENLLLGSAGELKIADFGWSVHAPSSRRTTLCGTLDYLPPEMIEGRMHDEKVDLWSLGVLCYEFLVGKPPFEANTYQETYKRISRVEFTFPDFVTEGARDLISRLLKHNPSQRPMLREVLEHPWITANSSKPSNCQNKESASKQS
In words: ITC; phosphorylated Aurora A.

The target in data set [6] is T2, dephosphorylated Aurora A kinase 122-403 (human, UniProt O14965 122-403).
T2 chain: T1 chain
In words: ITC. In general terms: In ITC the heat of successive injections is recorded.

The next data set has as its target T3, Aurora A^122−403 T288V (human, UniProt O14965 122-403, T288V).
T3 sequence (looked up): T1 chain with T167V
Put plainly: cell-based or functional assay.

For data set [7], the target named is T4, dephosphorylated Aurora A kinase 122-403 (human, UniProt O14965 122-403).
T4 construct: Aurora A kinase, human, residues 122-403, codon-optimized, completely dephosphorylated (confirmed by MS); Monomer and dimer are both seen in solution; also called deP Aurora A; deP Aurora A^122−403
T4 sequence (looked up): T1 chain
Put plainly: ITC; Nano ITC, 1 μl injections every 180 s, 25°C; 20 mM TrisHCl, 200 mM NaCl, 3% glycerol, 1 mM TCEP, pH 7.50; independent fit model; Aurora A 13-90 μM, TPX2 250-940 μM. The settings on record: both partners purified.

For “dephosphorylated Aurora A kinase 122-403 (from UniProt O14965 122-403) (domain or fragment)”, the dissociation constant (Kd) (commonly the equilibrium constant for the complex coming apart) in data set [1] is above 300000 nM. Besides, the stoichiometry N (in general, the number of molecules, sites or subunits per partner or assembly) in data set [2] was found to be 2. The same molecule gave a percent dimer in data set [3] of 9%.

B1: Aurora A^125−392 D274A (domain or fragment, human, UniProt O14965 125-392, looked up)
chain: KRQWALEDFEIGRPLGKGKFGNVYLAREKQSKFILALKVLFKAQLEKAGVEHQLRREVEIQSHLRHPNILRLYGYFHDATRVYLILEYAPLGTVYRELQKLSKFDEQRTATYITELANALSYCHSKRVIHRDIKPENLLLGSAGELKIAAFGWSVHAPSSRRTTLCGTLDYLPPEMIEGRMHDEKVDLWSLGVLCYEFLVGKPPFEANTYQETYKRISRVEFTFPDFVTEGARDLISRLLKHNPSQRPMLREVLEHPWITANSSKPSN
notes: Aurora A kinase, human, residues 125-392, D274A; The purification of this mutant is not described on its own; also called kinase-dead Aurora A D274A; catalytically impaired D274A mutant; source: E. coli, purified (short 125-392 construct in pET28a)
In the case of B1, the “stoichiometry N” value in data set [4] is 2.

Take MSQVKSSYSYDAPSDFINFSSLDDE [TPX2^1−25]: the figures for the dissociation constant Kd in data set [5] and in data set [6] were 1800 nM and 2000 nM, respectively.

As for MSQVKSSYSYDAPSDFINFSSLDDEGDTQNIDSWFEEKANLENKL [TPX2^1−45], the Kd in data set [5] came to 2000 nM; in data set [6], 5000 nM.

B2: TPX2^1−147 (Targeting Protein for Xklp2, residues 1-147) (domain or fragment, UniProt Q9ULW0 1-147, looked up)
chain: MSQVKSSYSYDAPSDFINFSSLDDEGDTQNIDSWFEEKANLENKLLGKNGTGGLFQGKTPLRKANLQQAIVTPLKPVDNTYYKEAEKENLVEQSIPSNACSSLEVEAAISRKTPAQPQRRSLRLSAQKDLEQKEKHHVKMKAKRCAT
notes: TPX2 (Targeting Protein for Xklp2), residues 1-147; also called longer TPX2 variant
Regarding B2, the “KA from the dose-dependence of TPX2 1-147 on AP phosphorylation kinetics by 1 μM Aurora A T288V” value with Aurora A^122−403 T288V was 1 µM. In addition, the Kd in data set [5] stood at 2900 nM; in data set [7], 1100 ± 100 nM.
